Data: patent US20090061443

Target: T1, Flag-CALM-AF10 fusion protein (wild-type), Q13492
T1 chain: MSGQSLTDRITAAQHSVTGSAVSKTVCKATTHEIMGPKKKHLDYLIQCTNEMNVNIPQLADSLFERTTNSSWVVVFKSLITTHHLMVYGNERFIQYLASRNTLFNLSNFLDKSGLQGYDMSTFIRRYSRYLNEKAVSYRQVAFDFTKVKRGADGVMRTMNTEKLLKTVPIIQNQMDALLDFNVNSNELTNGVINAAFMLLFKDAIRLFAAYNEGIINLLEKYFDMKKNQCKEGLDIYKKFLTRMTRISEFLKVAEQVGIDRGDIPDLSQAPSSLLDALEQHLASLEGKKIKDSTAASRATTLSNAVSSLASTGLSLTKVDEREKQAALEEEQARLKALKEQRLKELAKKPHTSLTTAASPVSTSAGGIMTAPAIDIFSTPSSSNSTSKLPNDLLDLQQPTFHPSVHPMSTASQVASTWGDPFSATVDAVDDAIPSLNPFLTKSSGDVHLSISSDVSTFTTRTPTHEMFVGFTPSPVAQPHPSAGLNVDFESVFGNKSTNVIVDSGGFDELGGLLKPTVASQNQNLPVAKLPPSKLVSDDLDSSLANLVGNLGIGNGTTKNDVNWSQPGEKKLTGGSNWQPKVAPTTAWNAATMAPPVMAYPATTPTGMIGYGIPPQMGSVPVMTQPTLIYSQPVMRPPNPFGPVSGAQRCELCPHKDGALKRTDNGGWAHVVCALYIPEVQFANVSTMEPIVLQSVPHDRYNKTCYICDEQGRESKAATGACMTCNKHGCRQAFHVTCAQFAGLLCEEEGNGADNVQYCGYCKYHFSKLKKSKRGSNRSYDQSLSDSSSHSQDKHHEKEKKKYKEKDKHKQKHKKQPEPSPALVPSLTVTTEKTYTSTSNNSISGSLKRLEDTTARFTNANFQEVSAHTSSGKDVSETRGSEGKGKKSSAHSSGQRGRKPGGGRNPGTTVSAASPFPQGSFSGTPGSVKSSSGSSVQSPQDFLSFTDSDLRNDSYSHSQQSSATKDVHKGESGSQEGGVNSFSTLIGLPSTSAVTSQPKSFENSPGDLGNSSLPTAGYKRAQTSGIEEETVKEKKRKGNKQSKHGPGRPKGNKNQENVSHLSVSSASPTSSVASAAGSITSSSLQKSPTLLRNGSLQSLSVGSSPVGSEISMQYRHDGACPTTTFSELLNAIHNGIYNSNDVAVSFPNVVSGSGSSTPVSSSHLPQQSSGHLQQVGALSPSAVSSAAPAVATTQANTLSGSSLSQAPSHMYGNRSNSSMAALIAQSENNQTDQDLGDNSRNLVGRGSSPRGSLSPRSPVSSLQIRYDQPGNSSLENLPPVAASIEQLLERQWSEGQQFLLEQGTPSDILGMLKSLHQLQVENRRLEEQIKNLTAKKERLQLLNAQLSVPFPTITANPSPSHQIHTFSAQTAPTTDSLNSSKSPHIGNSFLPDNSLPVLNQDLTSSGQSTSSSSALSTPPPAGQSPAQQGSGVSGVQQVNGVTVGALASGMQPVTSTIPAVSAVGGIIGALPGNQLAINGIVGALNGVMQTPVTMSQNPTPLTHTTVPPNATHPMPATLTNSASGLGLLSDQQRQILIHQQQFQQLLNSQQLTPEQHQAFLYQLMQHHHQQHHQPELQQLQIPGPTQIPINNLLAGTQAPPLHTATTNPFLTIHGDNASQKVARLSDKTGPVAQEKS

B1: hDOT1L (human DOT1-like protein) (protein)
chain: MGEKLELRLKSPVGAEPAVYPWPLPVYDKHHDAAHEIIETIRWVCEEIPDLKLAMENYVLIDYDTKSFESMQRLCDKYNRAIDSIHQLWKGTTQPMKLNTRPSTGLLRHILQQVYNHSVTDPEKLNNYEPFSPEVYGETSFDLVAQMIDEIKMTDDDLFVDLGSGVGQVVLQVAAATNCKHHYGVEKADIPAKYAETMDREFRKWMKWYGKKHAEYTLERGDFLSEEWRERIANTSVIFVNNFAFGPEVDHQLKERFANMKEGGRIVSSKPFAPLNFRINSRNLSDIGTIMRVVELSPLKGSVSWTGKPVSYYLHTIDRTILENYFSSLKNPKLREEQEAARRRQQRESKSNAATPTKGPEGKVAGPADAPMDSGAEEEKAGAATVKKPSPSKARKKKLNKKGRKMAGRKRGRPKKMNTANPERKPKKNQTALDALHAQTVSQTAASSPQDAYRSPHSPFYQLPPSVQRHSPNPLLVAPTPPALQKLLESFKIQYLQFLAYTKTPQYKASLQELLGQEKEKNAQLLGAAQQLLSHCQAQKEEIRRLFQQKLDELGVKALTYNDLIQAQKEISAHNQQLREQSEQLEQDNRALRGQSLQLLKARCEELQLDWATLSLEKLLKEKQALKSQISEKQRHCLELQISIVELEKSQRQQELLQLKSCVPPDDALSLHLRGKGALGRELEPDASRLHLELDCTKFSLPHLSSMSPELSMNGQAAGYELCGVLSRPSSKQNTPQYLASPLDQEVVPCTPSHVGRPRLEKLSGLAAPDYTRLSPAKIVLRRHLSQDHTVPGRPAASELHSRAEHTKENGLPYQSPSVPGSMKLSPQDPRPLSPGALQLAGEKSSEKGLRERAYGSSGELITSLPISIPLSTVQPNKLPVSIPLASVVLPSRAERARSTPSPVLQPRDPSSTLEKQIGANAHGAGSRSLALAPAGFSYAGSVAISGALAGSPASLTPGAEPATLDESSSSGSLFATVGSRSSTPQHPLLLAQPRNSLPASPAHQLSSSPRLGGAAQGPLPEASKGDLPSDSGFSDPESEAKRRIVFTITTGAGSAKQSPSSKHSPLTASARGDCVPSHGQDSRRRGRRKRASAGTPSLSAGVSPKRRALPSVAGLFTQPSGSPLNLNSMVSNINQPLEITAISSPETSLKSSPVPYQDHDQPPVLKKERPLSQTNGAHYSPLTSDEEPGSEDEPSSARIERKIATISLESKSPPKTLENGGGLAGRKPAPAGEPVNSSKWKSTFSPISDIGLAKSADSPLQASSALSQNSLFTFRPALEEPSADAKLAAHPRKGFPGSLSGADGLSPGTNPANGCTFGGGLAADLSLHSFSDGASLPHKGPEAAGLSSPLSFPSQRGKEGSDANPFLSKRQLDGLAGLKGEGSRGKEAGEGGLPLCGPTDKTPLLSGKAAKARDREVDLKNGHNLFISAAAVPPGSLLSGPGLAPAASSAGGAASSAQTHRSFLGPFPPGPQFALGPMSLQANLGSVAGSSVLQSLFSSVPAAAGLVHVSSAATRLTNSHAMGSFSGVAGGTVGGN
  confocal microscopy of co-expressed hDOT1L and CALM-AF10: High resolution analysis of the proteins indicates that they colocalize in the nucleus
